# Source: patent publication US20170348397A1 (Janssen / Centocor, published 2017)
# Assays:
# Human Serum Albumin = target: T1, Human Serum Albumin (human, UniProt P02768 25-609); experiment: IMAC pull-down from normal serum, SDS-PAGE with Coomassie stain
# T1 construct: also called HSA
# Method: (§1) To evaluate the functionality of binders, selected FN3 domains were tested for their ability to complex with endogenous albumin in normal serum. To ensure that albumin binding was preserved when selected FN3 domains were attached at either the amino or carboxy terminus of another FN3 domain, bivalent FN3 genes were prepared to generate constructs ALB18, ALB 30, ALB 21, ALB33, ALB34 and ALB35 (Table 6).
# (§2) C-terminally His6-tagged (SEQ ID NO: 72) bivalent FN3 domains (0.25-2.0 mg/mL in DPBS without calcium or magnesium) were mixed in a 1:1 volumetric ratio with normal serum and incubated for 1 hour at room temperature to allow binding to endogenous albumin in the serum. His6-tagged (SEQ ID NO: 72) FN3 domain-albumin complexes were recovered from serum via immobilized metal affinity chromatography (IMAC) using 200+ PhyTip columns containing a 5 μL resin bed (PureSpeed™ Protein Tip IMAC from Rainin Instrument LLC; Oakland, Calif.) pre-equilibrated with 50 mM Tris, pH 7.0 containing 500 mM NaCl and 10 mM imidazole. Unbound serum proteins were removed by exhaustively washing the resin with equilibration buffer. Bound protein was eluted with 25-100 μL of elution buffer (50 mM Tris, pH 7.0 containing 500 mM NaCl and 250 mM imidazole, pH 7.5). Eluates were analyzed by SDS-PAGE for the co-precipitation of albumin. SDS-PAGE gels were stained with colloidal Coomassie. […]
# Cynomolgus Serum Albumin = target: T2, Cynomolgus Serum Albumin (cynomolgus monkey, UniProt A2V9Z4 25-608); experiment: as above
# T2 construct: also called Macaca Fascicularis (cynomolgus monkey) serum albumin
# Method: as §1, §2
# T2 sequence (A2V9Z4 25-608 limits assumed): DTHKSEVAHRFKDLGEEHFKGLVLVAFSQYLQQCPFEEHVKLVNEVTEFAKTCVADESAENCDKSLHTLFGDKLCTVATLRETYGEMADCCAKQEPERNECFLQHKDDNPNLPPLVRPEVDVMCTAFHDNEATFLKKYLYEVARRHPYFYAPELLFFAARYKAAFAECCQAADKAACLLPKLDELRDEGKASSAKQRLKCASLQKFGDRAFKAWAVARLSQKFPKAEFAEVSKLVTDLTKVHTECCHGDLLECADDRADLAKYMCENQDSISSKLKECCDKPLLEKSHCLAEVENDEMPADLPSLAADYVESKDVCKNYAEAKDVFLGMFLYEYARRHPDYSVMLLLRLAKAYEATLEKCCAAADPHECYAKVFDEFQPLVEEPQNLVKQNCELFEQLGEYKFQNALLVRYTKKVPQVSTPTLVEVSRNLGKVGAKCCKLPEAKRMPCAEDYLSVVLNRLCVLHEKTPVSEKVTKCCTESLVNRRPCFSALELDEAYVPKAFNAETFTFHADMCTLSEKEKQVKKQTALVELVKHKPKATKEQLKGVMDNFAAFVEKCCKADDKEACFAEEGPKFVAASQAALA
# T1 sequence (P02768 25-609 limits assumed): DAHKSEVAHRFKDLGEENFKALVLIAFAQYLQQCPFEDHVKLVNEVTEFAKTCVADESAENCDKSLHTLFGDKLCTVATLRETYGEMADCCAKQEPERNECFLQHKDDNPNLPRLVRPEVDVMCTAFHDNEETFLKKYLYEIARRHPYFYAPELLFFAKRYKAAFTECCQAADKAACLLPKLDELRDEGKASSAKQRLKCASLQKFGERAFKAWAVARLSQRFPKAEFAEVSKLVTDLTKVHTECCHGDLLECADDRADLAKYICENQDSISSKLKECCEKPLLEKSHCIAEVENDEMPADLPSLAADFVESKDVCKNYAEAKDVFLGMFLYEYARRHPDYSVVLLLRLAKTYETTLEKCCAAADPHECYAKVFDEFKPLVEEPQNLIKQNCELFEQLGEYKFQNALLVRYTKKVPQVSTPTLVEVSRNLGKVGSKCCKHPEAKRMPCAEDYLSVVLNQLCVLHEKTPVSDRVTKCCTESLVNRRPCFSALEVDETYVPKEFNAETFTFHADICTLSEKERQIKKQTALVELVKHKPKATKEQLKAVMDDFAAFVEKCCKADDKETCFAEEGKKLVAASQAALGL
binder,measurement,setting,value
"Tencon25 (designed binder, Negative control of the pull-down; also called Tc25; TC25) LPAPKNLVVSEVTEDSARLSWTAPDAAFDSFLIQYQESEKVGEAIVLTVPGSERSYDLTGLKPGTEYTVSIYGVKGGHRSNPLSAIFTT",binding result,Human Serum Albumin,no binding
same,binding result,Cynomolgus Serum Albumin,no binding
